Test results from the domain aggregation screens of Martell et al. (2025).

experiment: soluble fraction after stress (log2 fold change); higher = more stays soluble; pooled small domains, quantitative proteomics; details: stress: 75 degC
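Note: 20 min heating vs room temperature control held 20 min.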

Sequence | soluble fraction (log2)
HMEIRNLMPILSHFLNENDIKLSRESVNLVLDRASGNRENLNNELKKIHDYSFSNKIIDFETIKKLTNLG | -0.0896
HMEISLAETLRSSLHMILGWYQNTGDKKLLELIRLHLQAYVNTGNSLNPEMEEIRAALETLGEGKEAFRP | -2.35
HMEISNWLEEIGLSRYTETLSEFPLEDLVEFTDDDFKELGVLTPHRKKLLAAIATLNNDASSN | -0.245
HMEISTEVPLRGGTISEEALEALNRLPGVTASNIDGKSISVDVADNAELRVSDINQVLAVHSPDTRV | -0.0403
HMEITRDTVIQWLEAERRSQTWLSKQLGVSVQAVSNWLREKNPQTISASAQITIRALMEEDAAK | -1.11
HMEIVQVIAQNIQDLLDKHKISVSELSGYLGISRQTLTNYLKTTSTIDSVQLVKIADFFNIPAEYLLKDH | -1.5
HMEIVSTEEKIKRAAEQVFLLRGLEGARMQEIADVAGINKAMLHYYFRNKETLFDVILSEKL | -2.11
HMEIYEEDRTKVVNDLMDQILNRQITMDAAATKFINIRNSLGTTITKEDEQNLEMLRGLIFDKT | 0.2
HMEIYIDGNKYVGELRNGKPNGRGTITYTGDGSKYVGEWKNGKRYGRGKMAYTNGTTKEGVWKDDEFLYAT | 0.181
HMEKAKVPSVIGMTEANAKRTIRDAGFKVGRVTRVESEAYDKGKVIEQQYEAGSELEKKKPISIVVSKGKK | -0.108
HMEKALEVKYQKMVELLGDQSTFYVDEVKKIFPEMKKSSLYWNMSKLVEGGYLRRIRNGVYAFNE | -0.401
HMEKEKIKEALIGYFEAEPEEKFTVQELADKLKMNKAGQFNFVVQAVAQLEHDKVITLDDEGNFSLVRHE | 0.176
HMEKERYDTGIGELNRVLGGGLVKGSLILISGDPGIGKSTLLLQTANNISKKYGKVLYVSGEESEEQIKIR | -0.879
HMEKGWYKLGQDSYYVDDDGKIHKGWLELDGKKYYFDQEGKMVTGTVNIDGKDYTFNEKGELYVS | ≥ 1.04
HMEKIELKTVIPENLKKKRLDFALSELFPEHSRSRIQSWIKEGSVMVNSKNYRQRDLVDAGDVVEINTEQK | 0.00949
HMEKIIGQIQINQRGNGYVIVPNVKDDIFVKRENLNSARQGDRVAVQLLSRPNQKPEGLVQEVLERGQ | 0.637
HMEKILSYKALMNDAGKRIDQFLANNEKDISRTRIKSLILEGSLKLDNNIINDPSYKIKENDVFTLFIPEA | -0.482
HMEKIRIQKYLSERGVMSRRAADSALAEGRIAVNGVTARPGDKIDPSSDTLTIDGRIVTTGTAP | -0.0992
HMEKKEWVIYITGAVKKPGVYRIPEGARVYQALEAAGGFTPEADRDAVNLAAMLQDGAHIKFPAVGEEV | -0.148
HMEKLNYSISNEEQGQRIDKYLSLMIEGKSRSFIQGLIDDKKVMANGKVIKSNYKLKNNDEITVEMPDPI | -0.0366
HMEKNILPDTSPEKQYEFATSFLKVGDYSTAERAFREFVINNSEHKLAGNAQYWYAETFRIRQ | 0.261
HMEKSQIHLIHTRYVNPEQLVPILSMVIPAENIYVKSDSNLIIINGSSEMLREVESIVSKLDVPS | -0.255
HMEKSSALRAKEAFMALYHDGKFKPGTKIPSESNMAELLGVSRETWRKALALLRGDGVLYSKHGSGTYLLE | 0.254
HMEKTKLPNLVDFTYRQAEALLQTHGLKVGKVERVPDVGQTVIKAKYKGKVISWGTELNKGEKIDLVIGKG | -0.542
HMELADLPSAQIREILAYVYRAPLEKRRDPSIHWLLIAAHKLTLPLLDRLDPADARALGERYGADYP | -0.00148
HMELARLRPELDGNDIMRILGVPPGPVVGRAYTYLLELRINQGELGRERVTQLLLDWAAAEGISA | -2.76
HMELDMTFGEKIQKLRKESGLSQEELSYQLGVSRQAISKWERDSGYPETEKIVRMSKIFDVTLDYLLNE | -0.582
HMELEDTYTKNLDASLARLDEYQASKGLTDEQVDEVINSLIADAENIIMGVFTPELIDSKLKAMNYDQDV | 0.119

Sequence | soluble fraction (log2)
HMELEFLTEKQKEALILAVNRGYYDVDSEVTLKRLADELGIARSTYGEHLKRAESEALKMVVSDLLRD | -0.556
HMELEIPGELIEAVRRLRDERQRMRLAGELAARQIQMHPERYTEASIDPVQTWDELRARILALA | -0.485
HMELLSGTVEKVLTSGVLVKLPGGAIGFIPNSEMGTPRGTNHGKMFPAGTPLQVMVVEVNQDRGRITLSR | -1.69
HMELLTNPLTGREVEVLTLMALGQTNHEIARQLYLATGTVKAHTSSIYRKLDVANRTEAVARARQLGIL | -2.32
HMELLTYREMDVLNLLDQRLTNKEIAHALGISTETVRQHTVNLFRKLNVDNRRQAIVVARSLGYIGTPT | -2.97
HMELNESVLKALYEKFREMSGSKGFITEDEVIIQLEKENPDITPDQQAEIFKYLYDTPLQIY | -0.268
HMELNFEGFYRFVRDELNVDLNAYKEKQLKRRIATVMKSSGALTLEDYSRLIANDEVIRNKFLDYITI | -3.37
HMELPMGTQLPPERELAQQMQVSRAVVNGGLAELAQQGFLEVRPRQGTFVADYRRKGNLSTLIAIMEY | 0.257
HMELPPLQPGQPIDGRVEQQIRAGYYVVSVRGRGYEFQLPESARPGDLLRMVYLNDHPRLTFALLRIDNAN | -1.5
HMELPVAVPHTELSPEALRGVVESFVLREGTDYGERDVPFEAKVAQVIRQLERGEARIMFDPVTQSVQIVT | 0.162
HMELRSPMPGLIIEIPVSKGDIIKKDQSLIILEAMKMENVLTSPINGKIADIKVNVQDTVEKNNLLITFEN | -0.0769
HMELSESLENYLVVIYEAHLRNEIARIKDMTASLSVKHTSAIDAIKKLEDLGIVNYEKRGFVKLTQSGIEK | 0.00204
HMELSPAELGERLKVARETANVTQDAGAKAAGIARTTLVAIEKGQRSARIDELQTLSRRYGVSVNSLLRR | -0.154
HMELSSRQAMIVDIVRKYEPITSEQIADKLNLTRSALRPDLAVLTMIGILEARPRVGYFFTGK | -1.91
HMELSTQERIQILLEILNQREIISFSQTLRKKEGKKGVVVTFLASLELAKDGYVTLVQNKSDQIYLRSN | -0.803
HMELTDSLTENAKKLYSVLTTEPRHIDDLSEEAKLSSADTLAALTELELYSLVALSEGKHYYK | -0.349
HMELTKAELEVMQILWKLKKAFVGDILDRMVEPKPAYNTVSTVVRLLEKKGVVGHESFGKSHRYYPL | -3.66
HMELTVPDFTNMSLEDAINLAEKRDVRLEVTDSVFVKRLGRGFIYSQNPVAGSKVKKGRRILITINAIN | -3.63
HMEMDPKELGRQVLAKRKEKGWSQEQLGKMAEISRNYVSQIERGEADSISIKIINRLAIALGVSPSDLGE | -0.292
HMEMKHKNSQIFQAIKLKHMGFTPTQISEELRVSRTTINHWLTKAQLKDVKWEDIRENSADELVKLLFG | -1.33
HMEMNPLDIQNKAAELAQQWLQLPVGERQKQMAAVRTSNPNLHAMAKQKMEEMRSQAESQGRQSLSQP | 0.324
HMEMTDKEEELMRIFWNHGPMFVREIVELYPEPRPHFNTLSTFVRNLEQKGFVSHEAVGGSFRYYAV | -1.45
HMEMTEDEITKQFDAMEREAKKEIDTGADKRAFMYGVSRTAAGMAGKNPKYARFITDKAKEVIENIAKYK | 0.298
HMENAEALLKKLSGVLSDYEYKMLMLYADGKTPRRIAQETGQSAKSVSNALFRARTKLKELYEDQ | -0.66
HMENEIVMPVQINGKKRGDLTIARDADQASIQKAVLELDFVKAALNGGSPKKVIVVPQRIVNVV | 0.338
HMENFKVFMKAVQEVSPVPVRFDEISSGAKGYYSNTEKEIVIQNGMSESQTMKTGIHEVTHAMLHDRDF | 0.234
HMENFYGYEIINPEAKKFFITMGVNRYALEQWIKNKSEYGLIIVKSLYPFDPRLKLFLEKNRERIQNLIF | -0.526
